The record followed here is US20250012721.

Data set [1] has as its target T1, substrate peptide 1: 2Abz-GLQRALEI-Lys(Dnp)-NH2.
T1 chain: GLQRALEI

Data set [2] deals with T2, substrate peptide 3: 2Abz-GYLGRSYKVG-Lys(Dnp)D-OH (not fully specified).
T2 chain: GYLGRSYKVG

Data set [3] has as its target T3, substrate peptide 2: 2Abz-SLGRKIQ-Lys(Dnp)-NH2.
T3 chain: SLGRKIQ

B1: double-stranded activated C1s protein (protein)
chain 1: EPTMYGEILSPNYPQAYPSEVEKSWDIEVPEGYGIHLYFTHLDIELSENCAYDSVQIISGDTEEGRLCGQRSSNNPHSPIVEEFQVPYNKLQVIFKSDFSNEERFTGFAAYYVATDINECTDFVDVPCSHFCNNFIGGYFCSCPPEYFLHDDMKNCGVNCSGDVFTALIGEIASPNYPKPYPENSRCEYQIRLEKGFQVVVTLRREDFDVEAADSAGNCLDSLVFVAGDRQFGPYCGHGFPGPLNIETKSNALDIIFQTDLTGQKKGWKLRYHGDPMPCPKEDTPNSVWEPAKAKYVFRDVVQITCLDGFEVVEGRVGATSFYSTCQSNGKWSNSKLKCQPVDCGIPESIENGKVEDPESTLFGSVIRYTCEEPYYYMENGGGGEYHCAGNGSWVNEVLGPELPKCVPVCGVPREPFEEKQR
chain 2: IIGGSDADIKNFPWQVFFDNPWAGGALINEYWVLTAAHVVEGNREPTMYVGSTSVQTSRLAKSKMLTPEHVFIHPGWKLLEVPEGRTNFDNDIALVRLKDPVKMGPTVSPICLPGTSSDYNLMDGDLGLISGWGRTEKRDRAVRLKAARLPVAPLRKCKEVKVEKPTADAEAYVFTPNMICAGGEKGMDSCKGDSGGAFAVQDPNDKTKFYAAGLVSWGPQCGTYGLYTRVKNYVDWIMKTMQENSTPRED
As to B1, the Kcat/Km is 1.67 in data set [1], 15.4 in data set [2] and 1.45 in data set [3].
